Results: patent US20070031956

System: S6 peptide (RRRLSSLRA)

Sequence of Full-length human Pim-1 kinase (residues M1-K313) with N-terminal HexaHis tag and thrombin cleavage site (chain, as listed by the source): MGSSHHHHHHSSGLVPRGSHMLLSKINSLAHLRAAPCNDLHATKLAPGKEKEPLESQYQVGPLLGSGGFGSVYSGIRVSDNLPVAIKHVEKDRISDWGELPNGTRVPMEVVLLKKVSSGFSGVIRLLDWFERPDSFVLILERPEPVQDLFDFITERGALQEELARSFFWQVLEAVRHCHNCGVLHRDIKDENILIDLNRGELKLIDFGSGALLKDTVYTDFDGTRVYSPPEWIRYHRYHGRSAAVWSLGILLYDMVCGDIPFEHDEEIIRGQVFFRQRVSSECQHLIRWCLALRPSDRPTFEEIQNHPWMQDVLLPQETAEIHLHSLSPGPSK

**Q.** With “Full-length human Pim-1 kinase (residues M1-K313) with N-terminal HexaHis tag and thrombin cleavage site” as the substance, how does the “peptide Km (coupled-enzyme kinase assay)” value read?
**A.** The value was “peptide Km=51±2 µM”.
